# From patent US20100261178A1
# Experiments:
# [1] = molecular target: human adiponectin receptor AdipoR1 (human) (UniProt Q96A54)
# [2] = molecular target: human adiponectin receptor AdipoR2 (human) (UniProt Q86V24)
substance,measurement,setting,value
adiponectin (ligand),EC50 of adiponectin for repression of FET3-lacZ,[1],0.7 pM
same,log EC50 pM of adiponectin for repression of FET3-lacZ,[1],-0.13 log EC50 pM
same,EC50 of adiponectin for repression of FET3-lacZ,[2],2.4 pM
same,log EC50 pM of adiponectin for repression of FET3-lacZ,[2],0.38 log EC50 pM
